# Measurements published in the RNAGym collection of RNA variant scans (doi:10.1073/pnas.2313332121).
# B1: TPR t1 (parent)
# chain: GACCAAUCUGCCCUCAGAGCUCGAGAACAUCUUCGGAUGCAGAGGAGGCAGGCUUCGGUGGCGCGAUAGCGCCAACGUCCUCAACCUCCAAUGCAUCCCACCACAUGAUGAUGCCUGAAGAGCCUUGGUUUUUUG
# Variants of: B1
# Assay: polymerase ribozyme fitness, log enrichment relative to wild type (log ratio); higher = more active; in vitro selection for triplet polymerase activity
# Outline: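 Mutant libraries were PCR-built and transcribed for each subunit of a heterodimeric triplet polymerase ribozyme and selected for one round in triplicate at −7 °C, frozen, before gel excision of extended constructs and streptavidin-bead capture. Input and output libraries were Illumina-sequenced, keeping genotypes with ≥10 input reads and ≥1 read per output. Fitness is a logarithmic ratio of genotype to wild-type enrichment, in base 2, using inverse-variance-weighted replicate averages.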
row,Variant,polymerase ribozyme fitness (log ratio)
1,A6U,0.173
2,A6U A16C C40U C70U C85G,-5.17
3,A6U A16U C40G C56A,-3.22
4,A6U A18G C20U C73G U125A,-2.1
5,A6U A18G G93A,-5.43
6,A6U A18U C28U C70A C123G,-6.38
7,A6U A18U G93C C102U,-6.29
8,A6U A24G A37U A43C A66U,-5.69
9,A6U A26G C79U,-2.88
10,A6U A26U G39A C49G G61A C88U C124G,-3.73
11,A6U A27U A46C G48A C53G C79G C82G G110C,-6.9
12,A6U A29U G61A C115G G117U,-4.58
13,A6U A37U U112A U130A,0.657
14,A6U A90U C114A U116G,-3.49
15,A6U C8A G71C C115A U116A A121G U131A,-2.72
16,A6U C8G C34U C53U C82U A84C,-4.3
17,A6U C8G C73G C88A U92G C98A G113U,-6.38
18,A6U C8G G44U C49A C72A G77U G120C U130G,-1.84
19,A6U C8U G48U,-0.267
20,A6U C11A C12U A37G G61A,-1.24
21,A6U C11A C13G G47A G48A A74C A118G,-5.36
22,A6U C11A C62G G120A,-2.04
23,A6U C11G,0.392
24,A6U C11G U112A U126A,1.81

row,Variant,polymerase ribozyme fitness (log ratio)
1,A6U C11U C28U C34A C73A G110A,0.315
2,A6U C11U U55G A83U U106A G128U U130C,-1.47
3,A6U C12A G48U U106G,-1.45
4,A6U C12A G61A U78A C80U C86A G120A,-2.58
5,A6U C12U C72U A83C G127U,-0.0511
6,A6U C12U C80U,-0.107
7,A6U C13A C22G A75U,-4.17
8,A6U C13G C56U G77C,-1.6
9,A6U C15A C56A A105C,-4.85
10,A6U C15A G51C G71U C124U,-5.41
11,A6U C15A G113A,-4.98
12,A6U C15U A26G C86U A100U G120A C123A U125G,-5.49
13,A6U C20U A37U G61A,-0.862
14,A6U C20U U21G G69C A121U,-0.95
15,A6U C22A C49U C72U,-5.16
16,A6U C22G U87A U92C A121U,-2.63
17,A6U C22U,-3.04
18,A6U C28G C72U C102U A103C,-7.04
19,A6U C40A C56G A84G C104U,-2.66
20,A6U C40A G60U A105C,-4.4
21,A6U C40G G42C C76A C94U U112C G122A,-2.22
22,A6U C40U C56U G69C A121C,-6.3
23,A6U C40U C123A,0.808
24,A6U C49G C62A U78C C88A A119U,-3.67

row,Variant,polymerase ribozyme fitness (log ratio)
1,A6U C49U C53U A84C,-0.896
2,A6U C49U G60U C94G G113A,-2.65
3,A6U C53U,0.192
4,A6U C53U G61C G77C C104A,-2.75
5,A6U C53U G69U G128C,-0.945
6,A6U C56A C94A U106A C124A,0.262
7,A6U C56G G110U,-1.25
8,A6U C56G U129A,-2.48
9,A6U C62A,-1.01
10,A6U C70A A91G,-2.94
11,A6U C72A,0.375
12,A6U C72U C76G C98U,-1.11
13,A6U C73G,-1.46
14,A6U C76G,-0.287
15,A6U C80A A95U G120A U130G,-3.72
16,A6U C88U G128A,-2.51
17,A6U C98A,-3.74
18,A6U C98U U112G,-3.5
19,A6U C102A C123G,-0.023
20,A6U C102A G128A,-4.03
21,A6U C115U,-1.06
22,A6U C115U A119U U130G,-1.27
23,A6U G10C C12A U87A,-0.928
24,A6U G10U C12U C15G C72G C86A,-3.18

row,Variant,polymerase ribozyme fitness (log ratio)
1,A6U G10U C13G C40U A41C G63U U78C C79A A121G,-4.13
2,A6U G17C,-4.25
3,A6U G17C U130A,-4.89
4,A6U G17U C40U C76G,-3.15
5,A6U G17U U112A G120A,-3.9
6,A6U G19A,-2.37
7,A6U G23U,-4.65
8,A6U G25A C56A C73A C79G C94U G113U C124A,-8.13
9,A6U G39A A74C A91U,-2.33
10,A6U G42C C73G,-2.29
11,A6U G42U G51A,-5.8
12,A6U G44A,-1.02
13,A6U G44A A50U C94G,-4.1
14,A6U G44A C73U C86G,-3.18
15,A6U G44A G63C G113U,-5.44
16,A6U G44U,-1.52
17,A6U G47A C70U C94U,-1.74
18,A6U G48A A91C C114A,-2.36
19,A6U G48C,-0.598
20,A6U G51U C70U C80U G93U,-5.12
21,A6U G58A U81A G110A A118C,-2.44
22,A6U G58C G63U C64A A119U,-6.07
23,A6U G61A C79G,-1.4
24,A6U G61U,-0.0436

row,Variant,polymerase ribozyme fitness (log ratio)
1,A6U G63C C80A,-3.25
2,A6U G63C C80U G93C U106A,-3.58
3,A6U G71A,-0.461
4,A6U G71A A83G,-1.85
5,A6U G71U,-0.239
6,A6U G71U C82G,-0.9
7,A6U G113U,-2.09
8,A6U G120C,1.12
9,A6U G120U,-0.0286
10,A6U G128A,-2.02
11,A6U U7G C8G C56A G63A,-2.06
12,A6U U9C U55C A75G A95C G110A,-1.37
13,A6U U9G G63A C104U C115U G117U,-3.69
14,A6U U9G G63C C104U C115U G117U,-1.31
15,A6U U14A C86A U96A,-6.24
16,A6U U54A,-0.507
17,A6U U78A C115G U116G,-2.95
18,A6U U92G,-2.92
19,U7A A16C C115A,-2.49
20,U7A A16U C49U C124U,1.1
21,U7A A37U U78A,0.116
22,U7A A43C U129G,-4.22
23,U7A A43U,-1.13
24,U7A A50U C64U,-0.349

row,Variant,polymerase ribozyme fitness (log ratio)
1,U7A A66G U87C C94U G110U,-2.5
2,U7A A66U C98U,-1.89
3,U7A A74G,-0.408
4,U7A C8A C11U C34U G48U C53A C72A,-5.13
5,U7A C8A G19U C97G A105G C124U,-7.51
6,U7A C8G A16C A46U,-0.61
7,U7A C8G A43C C53A G69U,-0.446
8,U7A C11A U81A,-1.32
9,U7A C12A A90G,-0.303
10,U7A C12G C89G A111C,-2.35
11,U7A C12U C62A G113C,-3.19
12,U7A C13G G63U G93A C102G C115U A121G,-7.01
13,U7A C13G U32C U38G,-1.31
14,U7A C15U C56A G69U U106G G120C,-0.793
15,U7A C20G U78C,-4.76
16,U7A C20U,-0.343
17,U7A C22A C40G A68U A84C G110C,-6.51
18,U7A C34A C97U,-1.97
19,U7A C53U C70U,-0.899
20,U7A C53U C73U C86U A90G G122A,-2.05
21,U7A C56G U92C,-1.74
22,U7A C56U G120U,0.935
23,U7A C64A,-4.63
24,U7A C70U C115A,0.524

row,Variant,polymerase ribozyme fitness (log ratio)
1,U7A C73G U116G,-2.7
2,U7A C73G U129G,-2.6
3,U7A C89U,-0.565
4,U7A C104G,-6.47
5,U7A C123G,2.34
6,U7A G10C A90U C101A,-4.34
7,U7A G10C G57U C88G,-2.78
8,U7A G19U C73G U92A,-4.76
9,U7A G35C A41C C64U C79U G113U,-7.12
10,U7A G36U G61U C124G,0.266
11,U7A G45U C56G A66G,-3.29
12,U7A G48A A50G G77A C101U U109A,-5.13
13,U7A G52A A111C,0.419
14,U7A G57U,-0.259
15,U7A G60U,0.564
16,U7A G60U C104A U125A,-1.13
17,U7A G61A C73A C104G U109C,-6.61
18,U7A G63A C89U,-1.1
19,U7A G63C U81G,-4.09
20,U7A G69U C98U,-0.115
21,U7A G93C,-0.696
22,U7A U9C,0.526
23,U7A U9C G45C C70U C89A C123A,-2.15
